Earlier results as cited in article PMC12759081.

Target: PDS5B (Homo sapiens) (UniProt Q9NTI5)
Test: ITC

Chain of Wapl (Q7Z5K2 whole entry): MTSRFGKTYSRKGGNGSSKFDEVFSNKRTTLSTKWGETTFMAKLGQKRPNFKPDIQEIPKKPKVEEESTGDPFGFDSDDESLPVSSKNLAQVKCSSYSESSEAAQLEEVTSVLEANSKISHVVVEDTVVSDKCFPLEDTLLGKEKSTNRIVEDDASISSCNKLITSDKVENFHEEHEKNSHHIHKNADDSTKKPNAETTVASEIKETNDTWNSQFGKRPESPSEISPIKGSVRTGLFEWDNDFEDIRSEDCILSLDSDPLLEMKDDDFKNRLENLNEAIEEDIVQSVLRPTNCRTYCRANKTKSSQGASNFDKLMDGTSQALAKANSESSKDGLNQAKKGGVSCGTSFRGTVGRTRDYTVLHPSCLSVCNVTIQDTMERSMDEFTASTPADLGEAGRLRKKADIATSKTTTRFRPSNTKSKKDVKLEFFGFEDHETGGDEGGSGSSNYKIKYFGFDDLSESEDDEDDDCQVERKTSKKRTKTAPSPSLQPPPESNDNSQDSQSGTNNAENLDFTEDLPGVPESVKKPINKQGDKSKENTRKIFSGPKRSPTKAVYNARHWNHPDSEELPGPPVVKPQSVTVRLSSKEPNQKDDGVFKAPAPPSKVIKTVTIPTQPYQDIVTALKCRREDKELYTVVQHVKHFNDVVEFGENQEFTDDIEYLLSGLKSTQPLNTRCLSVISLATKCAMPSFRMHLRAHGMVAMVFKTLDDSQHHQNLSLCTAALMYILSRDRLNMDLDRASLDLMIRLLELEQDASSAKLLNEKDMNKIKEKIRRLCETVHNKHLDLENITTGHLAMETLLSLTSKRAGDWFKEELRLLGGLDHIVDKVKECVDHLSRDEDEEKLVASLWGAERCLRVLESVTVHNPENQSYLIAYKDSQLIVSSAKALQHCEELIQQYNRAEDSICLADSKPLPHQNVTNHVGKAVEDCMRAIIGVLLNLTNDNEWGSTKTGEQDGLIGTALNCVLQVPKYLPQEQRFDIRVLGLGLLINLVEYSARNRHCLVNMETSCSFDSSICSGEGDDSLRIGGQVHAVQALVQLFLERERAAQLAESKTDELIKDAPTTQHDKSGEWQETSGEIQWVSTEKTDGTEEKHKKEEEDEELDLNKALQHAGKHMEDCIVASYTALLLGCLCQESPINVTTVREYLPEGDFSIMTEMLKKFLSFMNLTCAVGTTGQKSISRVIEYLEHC
Chain of PDS5B (Homo sapiens) (Q9NTI5 whole entry): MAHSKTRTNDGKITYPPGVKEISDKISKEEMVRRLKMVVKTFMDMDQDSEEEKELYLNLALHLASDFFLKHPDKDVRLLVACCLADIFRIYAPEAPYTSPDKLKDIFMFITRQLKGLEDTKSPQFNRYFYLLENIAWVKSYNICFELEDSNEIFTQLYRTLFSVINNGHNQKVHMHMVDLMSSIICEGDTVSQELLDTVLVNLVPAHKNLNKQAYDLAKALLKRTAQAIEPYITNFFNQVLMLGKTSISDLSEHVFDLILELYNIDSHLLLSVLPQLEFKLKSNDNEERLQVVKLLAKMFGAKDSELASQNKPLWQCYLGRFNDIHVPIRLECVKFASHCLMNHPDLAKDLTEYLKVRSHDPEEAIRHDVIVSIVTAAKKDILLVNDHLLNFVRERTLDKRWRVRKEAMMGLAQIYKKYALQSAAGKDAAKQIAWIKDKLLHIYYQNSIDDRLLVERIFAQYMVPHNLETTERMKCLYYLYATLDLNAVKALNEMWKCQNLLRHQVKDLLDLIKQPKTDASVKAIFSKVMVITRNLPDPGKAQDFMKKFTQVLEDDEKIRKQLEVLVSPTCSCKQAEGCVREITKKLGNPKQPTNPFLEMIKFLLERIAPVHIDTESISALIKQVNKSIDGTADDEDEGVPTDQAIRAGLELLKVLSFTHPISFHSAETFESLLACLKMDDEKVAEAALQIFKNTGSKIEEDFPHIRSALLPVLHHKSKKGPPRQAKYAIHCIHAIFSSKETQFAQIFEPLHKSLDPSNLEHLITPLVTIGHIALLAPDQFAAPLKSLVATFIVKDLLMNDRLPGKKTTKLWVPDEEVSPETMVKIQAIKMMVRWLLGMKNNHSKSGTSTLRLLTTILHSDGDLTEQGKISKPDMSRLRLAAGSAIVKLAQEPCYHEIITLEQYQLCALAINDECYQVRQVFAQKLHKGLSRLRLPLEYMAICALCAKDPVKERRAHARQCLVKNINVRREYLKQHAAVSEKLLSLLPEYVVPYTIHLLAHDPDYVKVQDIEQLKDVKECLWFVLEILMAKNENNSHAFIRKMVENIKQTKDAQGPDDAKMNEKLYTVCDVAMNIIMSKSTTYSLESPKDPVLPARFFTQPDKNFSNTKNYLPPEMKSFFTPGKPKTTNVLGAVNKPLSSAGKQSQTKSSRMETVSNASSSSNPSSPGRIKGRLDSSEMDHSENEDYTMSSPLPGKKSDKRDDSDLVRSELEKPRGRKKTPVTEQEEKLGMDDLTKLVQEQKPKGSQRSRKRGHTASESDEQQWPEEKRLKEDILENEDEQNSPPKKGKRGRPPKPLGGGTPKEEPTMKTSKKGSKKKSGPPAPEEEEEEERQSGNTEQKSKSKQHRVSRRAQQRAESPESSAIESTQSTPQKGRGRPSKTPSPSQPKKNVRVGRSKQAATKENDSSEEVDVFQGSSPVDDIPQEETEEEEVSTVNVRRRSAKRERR

Wapl (from UniProt Q7Z5K2)
Kd: 6 µM
